Data taken from patent publication US20260242497A1 (VIAL HEALTH TECHNOLOGY, published 2026).

target: T1, human FcRn (human, UniProt P55899 24-297; P61769 21-119); assay: SPR, Biacore 8K, CM5 chip, antibody immobilised, human FcRn as analyte, pH 6.0
T1 construct: also called neonatal Fc receptor
Protocol: (§1) The 1×PBST running buffer was prepared at both pH 6.0 and pH 7.4. Kinetic measurements were obtained for association and dissociation times of 60 and 90 seconds, respectively, at a flow rate of 30 μL/min. The CM5 chips were regenerated with 1×PBS (pH 7.4). Kinetic parameters for the concentration series at both pHs were fit to a steady state affinity model and averaged using the Biacore Evaluation Software. Each concentration series was fit independently to obtain the average rates and binding affinities.
SPR analysis was performed using a Bioacore 8K instrument and a CM5 with the antibody immobilized at 10 g/mL concentration, as above.

Fold Increase (FI) relative to Rituximab	Kd	Binder
47.5 fold	44.8 nM	AB_IL13_02_001_HL9 (antibody, human IgG1, kappa, L234A L235A) heavy: EVQLQESGPGLVKPSETLSLTCTVSGFSLNAYSVNWIRQPPGKGLEWLGMIWGDGKIVYNSALKSRLTISKDSSKNQVSLKLSSVTAADTAVYYCAGDGYYPYFMDNWGQGTTVTVSSASTKGPSVFPLAPSSKSTSGGTAALGCLVKDYFPEPVTVSWNSGALTSGVHTFPAVLQSSGLYSLSSVVTVPSSSLGTQTYICNVNHKPSNTKVDKKVEPKSCDKTHTCPPCPAPEAAGGPSVFLFPPKPKDTLMISRTPEVTCVVVDVSHEDPEVKFNWYVDGVEVHNAKTKPREEQYNSTYRVVSVLTVLHRDWLNGKEYKCKVSNKALPAPIEKTISKAKGQPREPQVYTLPPSRDELTKNQVSLTCLVKGFYPSDIAVEWESNGQPENNYKTTPPVLDSDGSFFLYSKLTVDKSRWQQGNVFSCSVLHEALKFHYTQKSLSLSPG light: DIQLTQSPSSLSASVGDRVTITCRASKSVDSYGNSFMHWYQQKPGKAPKLLIYLASNLESGVPSRFSGSGSGTDFTLTISSLQPEDFATYYCQQNNEDPRTFGGGTKVEIKRTVAAPSVFIFPPSDEQLKSGTASVVCLLNNFYPREAKVQWKVDNALQSGNSQESVTEQDSKDSTYSLSSTLTLSKADYEKHKVYACEVTHQGLSSPVTKSFNRGEC
45.9 fold	46.4 nM	AB_IL13_02_004_HL9 (antibody, human IgG1, kappa, L234A L235A) heavy: EVQLQESGPGLVKPSETLSLTCTVSGFSLNAYSVNWIRQPPGKGLEWLGMIWGDGKIVYNSALKSRLTISKDSSKNQVSLKLSSVTAADTAVYYCAGDGYYPYAMDGWGQGTTVTVSSASTKGPSVFPLAPSSKSTSGGTAALGCLVKDYFPEPVTVSWNSGALTSGVHTFPAVLQSSGLYSLSSVVTVPSSSLGTQTYICNVNHKPSNTKVDKKVEPKSCDKTHTCPPCPAPEAAGGPSVFLFPPKPKDTLMISRTPEVTCVVVDVSHEDPEVKFNWYVDGVEVHNAKTKPREEQYNSTYRVVSVLTVLHRDWLNGKEYKCKVSNKALPAPIEKTISKAKGQPREPQVYTLPPSRDELTKNQVSLTCLVKGFYPSDIAVEWESNGQPENNYKTTPPVLDSDGSFFLYSKLTVDKSRWQQGNVFSCSVLHEALKFHYTQKSLSLSPG light: DIQLTQSPSSLSASVGDRVTITCRASKSVDSYGNSFMHWYQQKPGKAPKLLIYLASNLESGVPSRFSGSGSGTDFTLTISSLQPEDFATYYCQQNNEDPRTFGGGTKVEIKRTVAAPSVFIFPPSDEQLKSGTASVVCLLNNFYPREAKVQWKVDNALQSGNSQESVTEQDSKDSTYSLSSTLTLSKADYEKHKVYACEVTHQGLSSPVTKSFNRGEC
38.1 fold	55.9 nM	AB_IL15_AI_02_077_HL9 (antibody, human IgG1, kappa, L234A L235A, Anti-IL15 antibody with Q311R, M428L, H433K, N434F) heavy: EVQLVESGGGLVQPGGSLRLSCAASEFTFSNYAMSWVRQAPGKGLEWVATISRGGDYHYYPDSVKGRFTISRDNSKNTLYLQMNSLRAEDTAVYYCARRVSMITGGWAHDYWGQGTLVTVSSASTKGPSVFPLAPSSKSTSGGTAALGCLVKDYFPEPVTVSWNSGALTSGVHTFPAVLQSSGLYSLSSVVTVPSSSLGTQTYICNVNHKPSNTKVDKRVEPKSCDKTHTCPPCPAPEAAGGPSVFLFPPKPKDTLMISRTPEVTCVVVDVSHEDPEVKFNWYVDGVEVHNAKTKPREEQYNSTYRVVSVLTVLHRDWLNGKEYKCKVSNKALPAPIEKTISKAKGQPREPQVYTLPPSREEMTKNQVSLTCLVKGFYPSDIAVEWESNGQPENNYKTTPPVLDSDGSFFLYSKLTVDKSRWQQGNVFSCSVLHEALKFHYTQKSLSLSPGK light: DVVMTQSPLSLPVTLGQPASISCRSSQSIVDITGNTYLEWYQQRPGQSPRLLIYKVFNRFSGVPDRFSGSGSGTDFTLKISRVEAEDVGVYYCFQDSFVPYTFGQGTKLEIKRTVAAPSVFIFPPSDEQLKSGTASVVCLLNNFYPREAKVQWKVDNALQSGNSQESVTEQDSKDSTYSLSSTLTLSKADYEKHKVYACEVTHQGLSSPVTKSFNRGEC
50.4 fold	42.3 nM	AB_IL1b_02_003_HL9 (antibody, human IgG4 S228P, kappa, F234A L235A, Anti-IL1β antibody with Q311R, M428L, H433K, N434F) heavy: EVQLVESGGGLVQPGGSLRLSCAASGFTFSDHYMSWIRQAPGKGLEWVSYISSSGSTIYYADSVKGRFTISRDNAKNSLYLQMNSLRAEDTAVYYCAREYDSSGYYYVGVDFWGQGTLVTVSSASTKGPSVFPLAPCSRSTSESTAALGCLVKDYFPEPVTVSWNSGALTSGVHTFPAVLQSSGLYSLSSVVTVPSSSLGTKTYTCNVDHKPSNTKVDKRVESKYGPPCPPCPAPEAAGGPSVFLFPPKPKDTLMISRTPEVTCVVVDVSQEDPEVQFNWYVDGVEVHNAKTKPREEQFNSTYRVVSVLTVLHRDWLNGKEYKCKVSNKGLPSSIEKTISKAKGQPREPQVYTLPPSQEEMTKNQVSLTCLVKGFYPSDIAVEWESNGQPENNYKTTPPVLDSDGSFFLYSRLTVDKSRWQEGNVFSCSVLHEALKFHYTQKSLSLSLG light: not shown
9.8 fold	218 nM	AB_TL1A_02_004_HL1 (antibody, human IgG1, kappa) heavy: QVQLVQSGAEVKKPGASVKVSCKASGYDFTYYGISWVRQAPGQGLEWMGWISPYNGNTHYAQKLQGRVTMTTDTSTRTAYMELRSLRSDDTAVYYCARENYYGSGAYRGGMDVWGQGTTVTVSSASTKGPSVFPLAPSSKSTSGGTAALGCLVKDYFPEPVTVSWNSGALTSGVHTFPAVLQSSGLYSLSSVVTVPSSSLGTQTYICNVNHKPSNTKVDKKVEPKSCDKTHTCPPCPAPEAAGAPSVFLFPPKPKDTLYITREPEVTCVVVDVSHEDPEVKFNWYVDGVEVHNAKTKPREEQYNSTYRVVSVLTVLHQDWLNGKEYKCKVSNKALPAPIEKTISKAKGQPREPQVYTLPPSREEMTKNQVSLTCLVKGFYPSDIAVEWESNGQPENNYKTTPPVLDSDGSFFLYSKLTVDKSRWQQGNVFSCSVMHEALHNHYTQKSLSLSPG light: not shown
20.7 fold	103 nM	AB_IL13_TSLP_BsAb_ISTF_003 (bispecific antibody) chain 1: EVQLVQSGAEVKKPGSSVKVSCKASGYTFSNYLIEWVRQAPGQGLEWIGVIDPGVGDTNYNENFKGRATLTADKSTSTAYIELSSLRSEDTAVYYCAREDNPGTAFDYWGQGTTVTVSSASTKGPSVFPLAPSSKSTSGGTAALGCLVKDYFPEPVTVSWNSGALTSGVHTFPAVLQSSGLYSLSSVVTVPSSSLGTQTYICNVNHKPSNTKVDKRVEPKSCDKTHTCPPCPAPEAAGGPSVFLFPPKPKDTLMISRTPEVTCVVVDVSHEDPEVKFNWYVDGVEVHNAKTKPREEQYNSTYRVVSVLTVLHQDWLNGKEYKCKVSNKALPAPIEKTISKAKGQPREPQVYTLPPCREEMTKNQVSLWCLVKGFYPSDIAVEWESNGQPENNYKTTPPVLDSDGSFFLYSKLTVDKSRWQQGNVFSCSVLHEALHSHYTQKSLSLSPGK chain 2: SIVMTQTPLSLSVTPGQPASISCKASQSVSSDVTWYLQKPGQSPQLLIYYVSEHYTGVPDRFSGSGYGTDFTLKISRVEAEDVGVYYCQQHHRFPLTFGQGTKLEIKRTVAAPSVFIFPPSDEQLKSGTASVVCLLNNFYPREAKVQWKVDNALQSGNSQESVTEQDSKDSTYSLSSTLTLSKADYEKHKVYACEVTHQGLSSPVTKSFNRGEC chain 3: DIQLTQSPSSLSASVGDRVTITCRASKSVDSYGNSFMHWYQQKPGKAPKLLIYLASNLESGVPSRFSGSGSGTDFTLTISSLQPEDFATYYCQQNNEDPRTFGCGTKVEIKGGGGSGGGGSGGGGSGGGGSEVQLQESGPGLVKPSETLSLTCTVSGFSLNAYSVNWIRQPPGKCLEWLGMIWGDGKIVYNSALKSRLTISKDSSKNQVSLKLSSVTAADTAVYYCAGDGYYPYAMRNWGQGTTVTVSSEPKSSDKTHTCPPCPAPEAAGGPSVFLFPPKPKDTLMISRTPEVTCVVVDVSHEDPEVKFNWYVDGVEVHNAKTKPREEQYNSTYRVVSVLTVLHQDWLNGKEYKCKVSNKALPAPIEKTISKAKGQPREPQVCTLPPSREEMTKNQVSLSCAVKGFYPSDIAVEWESNGQPENNYKTTPPVLDSDGSFFLVSKLTVDKSRWQQGNVFSCSVLHEALHSHYTQKSLSLSPGK
48.5 fold	43.9 nM	AB_IL13_TSLP_BsAb_ISTF_003_HL9 (bispecific antibody, human IgG1, kappa, L234A L235A, Anti-TSLP Fab arm (HC + LC) and anti-IL13 scFv-Fc arm) heavy: EVQLVQSGAEVKKPGSSVKVSCKASGYTFSNYLIEWVRQAPGQGLEWIGVIDPGVGDTNYNENFKGRATLTADKSTSTAYIELSSLRSEDTAVYYCAREDNPGTAFDYWGQGTTVTVSSASTKGPSVFPLAPSSKSTSGGTAALGCLVKDYFPEPVTVSWNSGALTSGVHTFPAVLQSSGLYSLSSVVTVPSSSLGTQTYICNVNHKPSNTKVDKRVEPKSCDKTHTCPPCPAPEAAGGPSVFLFPPKPKDTLMISRTPEVTCVVVDVSHEDPEVKFNWYVDGVEVHNAKTKPREEQYNSTYRVVSVLTVLHRDWLNGKEYKCKVSNKALPAPIEKTISKAKGQPREPQVYTLPPCREEMTKNQVSLWCLVKGFYPSDIAVEWESNGQPENNYKTTPPVLDSDGSFFLYSKLTVDKSRWQQGNVFSCSVLHEALKFHYTQKSLSLSPGK light: SIVMTQTPLSLSVTPGQPASISCKASQSVSSDVTWYLQKPGQSPQLLIYYVSEHYTGVPDRFSGSGYGTDFTLKISRVEAEDVGVYYCQQHHRFPLTFGQGTKLEIKRTVAAPSVFIFPPSDEQLKSGTASVVCLLNNFYPREAKVQWKVDNALQSGNSQESVTEQDSKDSTYSLSSTLTLSKADYEKHKVYACEVTHQGLSSPVTKSFNRGEC scFv: DIQLTQSPSSLSASVGDRVTITCRASKSVDSYGNSFMHWYQQKPGKAPKLLIYLASNLESGVPSRFSGSGSGTDFTLTISSLQPEDFATYYCQQNNEDPRTFGCGTKVEIKGGGGSGGGGSGGGGSGGGGSEVQLQESGPGLVKPSETLSLTCTVSGFSLNAYSVNWIRQPPGKCLEWLGMIWGDGKIVYNSALKSRLTISKDSSKNQVSLKLSSVTAADTAVYYCAGDGYYPYAMRNWGQGTTVTVSSEPKSSDKTHTCPPCPAPEAAGGPSVFLFPPKPKDTLMISRTPEVTCVVVDVSHEDPEVKFNWYVDGVEVHNAKTKPREEQYNSTYRVVSVLTVLHRDWLNGKEYKCKVSNKALPAPIEKTISKAKGQPREPQVCTLPPSREEMTKNQVSLSCAVKGFYPSDIAVEWESNGQPENNYKTTPPVLDSDGSFFLVSKLTVDKSRWQQGNVFSCSVLHEALKFHYTQKSLSLSPGK

target: T1, human FcRn; assay: SPR, Biacore 8K, CM5 chip, antibody immobilised, human FcRn as analyte, pH 6.0, steady-state affinity fit
Protocol: as §1

Fold Increase (FI) relative to RVT-3101	Kd	Binder
5.3 fold	461 nM	AB_TL1A_02_004_HL3 (antibody, human IgG1, kappa, built from the name and the HLE mutation column) heavy: QVQLVQSGAEVKKPGASVKVSCKASGYDFTYYGISWVRQAPGQGLEWMGWISPYNGNTHYAQKLQGRVTMTTDTSTRTAYMELRSLRSDDTAVYYCARENYYGSGAYRGGMDVWGQGTTVTVSSASTKGPSVFPLAPSSKSTSGGTAALGCLVKDYFPEPVTVSWNSGALTSGVHTFPAVLQSSGLYSLSSVVTVPSSSLGTQTYICNVNHKPSNTKVDKKVEPKSCDKTHTCPPCPAPEAAGAPSVFLFPPKPKDTLMISRTPEVTCVVVDVSHEDPEVKFNWYVDGVEVHNAKTKPREEQYNSTYRVVSVLTVLHRDWLNGKEYKCKVSNKALPAPIEKTISKAKGQPREPQVYTLPPSREEMTKNQVSLTCLVKGFYPSDIAVEWESNGQPENNYKTTPPVLDSDGSFFLYSKLTVDKSRWQQGNVFSCSVLHEALHNHYTQKSLSLSPG light: not shown
